The series deals with T1, Chromogenic polypeptide Val-Arg-[pABA]-Gly.
T1 chain: VRXG

B1: papain (protein)
chain: IPEYVDWRQKGAVTPVKNQGSCGSCWAFSAVVTIEGIIKIRTGNLNEYSEQELLDCDRRSYGCNGGYPWSALQLVAQYGIHYRNTYPYEGVQRYCRSREKGPYAAKTDGVRQVQPYNEGALLYSIANQPVSVVLEAAGKDFQLYRGGIFVGPCGNKVDHAVAAVGYGPNYILIKNSWGTGWGENGYIRIKRGTGNSYGVCGLYTSSFYPVKN
With B1, the “colour change with DMAC after proteolysis (booklet assay)” value is “after ten minutes DMAC changed from yellow to red”.

The values are drawn from patent publication US8993253.
